Data taken from patent publication US20180289803A1 (Eli Lilly, published 2018).

Target: human PD-L1 (endogenous, in the mixed leukocyte reaction of human CD4 T-cells and monocyte-derived dendritic … (human, UniProt Q9NZQ7 19-290))
Test: cell-based or functional assay

IFN-γ levels in the mixed leukocyte reaction (MLR) at 4 nM antibody: ~3 fold
IFN-γ levels in the mixed leukocyte reaction (MLR) at 8 nM antibody: ~5 fold
B1: Antibody C (bispecific antibody, human IgG1, kappa, lambda, L234A L235A)
heavy 1: not shown
light 1: not shown
heavy 2: not shown
light 2: DIVMTQSPSSLSASVGDGVTITCQASQDIYNYLNWYQQKPGKAPKLLIYYASSIVSGVPSRFSGSGSGTDFTLTISSLQPEDFATYYCQQASSFPPTFGQGTKLEIKRTVAAPSVFIFPPSDEQLKSGTARVGCLLNNFYPREAKVQWKVDNALQSGNSQESVTEQDSKDSTYSLRSALTLSKADYEKHKVYACEVTHQGLSSPVTKSFNRGEC
